One test addresses T1, human IL2Ra (human, UniProt P01589 22-240, limits assumed).
T1 construct: coated on the ELISA plate; also called IL-2 receptor alpha
T1 sequence (looked up): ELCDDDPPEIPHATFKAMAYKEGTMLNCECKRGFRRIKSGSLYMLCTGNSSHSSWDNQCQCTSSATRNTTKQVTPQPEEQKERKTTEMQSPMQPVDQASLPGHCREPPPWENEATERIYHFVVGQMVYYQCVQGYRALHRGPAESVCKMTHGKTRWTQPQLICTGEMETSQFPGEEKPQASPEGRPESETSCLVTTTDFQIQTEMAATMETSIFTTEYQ
As to the kind of experiment: ELISA on coated IL2Ra, signal ratio to isotype control. As for the experimental part: IL2RA (Peprotech, Germany, #200-02RC) was coated at 1 or 0 μg/ml (buffer only control) in 30 μl coating buffer (Candor, #113500) per well on a 384 well microtiter plate (Maxisorb, Nunc, #460518) over night at 4-8° C. After two washes with 50 μl/well washing buffer (PBS+0.05% Tween, pH 7.4), the plates were incubated for two hours at room temperature with 50 μl/well SmartBlock (Candor, #113500). After blocking, the plates were washed three times with washing buffer. Then, a dilution series of the respective antibody (1E-7 [M] down to 2E-13 [M]) in PBS+0.05% Tween, 10% SmartBlock were added in 30 μl to the microtiter plate and incubated for 90 min at room temperature. After three additional washes, 30 μl anti mouse IgG HRP-conjugated antibody (Biotechne, HAF007), diluted 1:1000 in PBS+0.05% Tween (pH 7.4), were added per well and incubated for one hour. […] Relative fluorescence was measured with a microtiter plate reader at 535/590 nm.
Bispecific antibodies were subjected to the experimental assay procedure described in Example 20. Ratios of the signals generated at an antibody concentration of 1E-07 [M] by the respective bispecific antibody versus those of an isotype control antibody were calculated and are shown in Table E29. […]

Test [1] deals with T2, murine IL-11 (Invigate, e.g., lot #C210819-09) (mouse, UniProt P47873 22-199).
T2 construct: Bought protein; biotinylated where captured on streptavidin plates; also called mIL-11; mIL11
T2 sequence: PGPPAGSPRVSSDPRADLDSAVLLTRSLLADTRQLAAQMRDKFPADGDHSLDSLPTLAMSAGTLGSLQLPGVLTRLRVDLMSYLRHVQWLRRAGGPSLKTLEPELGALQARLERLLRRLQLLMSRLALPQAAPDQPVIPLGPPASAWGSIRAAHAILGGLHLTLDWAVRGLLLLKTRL
Description: Tri-complex ELISA: antibody titrated against 8 nM murine IL-11, 2 nM murine gp130-human-Fc and 2 nM murine IL11RA-murine-Fc. As for the experimental part: (§1) In the Tri-complex ELISA format IL-11 antibodies are tested for their ability to inhibit the formation of a complex consisting of murine or human gp130-Fc fusion protein, with murine or human IL-11, and a murine IL11RA-Fc fusion protein. The assay format was adapted according to FIG. 18 (a, b), depending on whether murine or human IL-11 IgG antibodies were tested.
(§2) The assay was performed using High Binding microtiter plates (Greiner, #781077). In a first step, 25 μl of goat anti human IgG (Sigma, #12136), diluted 1:1000 in coating buffer (Candor, #121125) was coated on the plate at 4° C. overnight. Next day, the plate was washed one time with 50 μl PBST and then blocked with 50 μl SmartBlock (Candor, #113125) for one hour at room temperature (RT). […] After three additional washes of the coated and blocked microtiter plate with PBS-T, 25 μl of each mixture were added and the assay plate was incubated for one hour at room temperature. After three additional washes, anti-mouse-gp130 biotinylated antibody (R&D, #BAF468) or anti-human gp130 biotinylated antibody (R&D, #BAF228), both 1:1000 in 10% SmartBlock PBS-T, was added and incubated for 1 hour at RT. After three additional washes, a Streptavidin-Peroxidase conjugate (Sigma, #S5512) 1:1000 in SmartBlock PBS-T was added and incubated for one hour at room temperature. After a final three washes, AmplexRed (Fisher Scientific, A12222), 1/1000 in PBS, 0,003% H₂O₂, was added as substrate and incubated for 15 min at RT in the dark. Then, the fluorescence was measured with a plate reader at 535/595 nm. Signals from dose responses were used to calculate IC50 values using GraphPad Prism software.

For test [2], the target named is T3, human IL-11 (Invigate, e.g., lot #C121021-19) (human, UniProt P20809 22-199).
T3 construct: Bought protein; also called hIL-11; hIL11
T3 sequence: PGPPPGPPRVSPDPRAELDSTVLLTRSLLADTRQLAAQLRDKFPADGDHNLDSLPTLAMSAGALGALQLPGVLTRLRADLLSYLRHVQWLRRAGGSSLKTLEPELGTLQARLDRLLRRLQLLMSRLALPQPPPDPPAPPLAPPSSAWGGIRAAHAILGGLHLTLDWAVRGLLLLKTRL
Description: Tri-complex ELISA: antibody titrated against 8 nM human IL-11, 2 nM human gp130-human-Fc and 2 nM murine IL11RA-murine-Fc. As to the method:
as §1, §2

In test [3] the target is T2, murine IL-11 (Invigate, e.g., lot …). Description: SPR, Biacore T200, 25 C; antibody captured via anti-mouse Fc, IL-11 as analyte, 1:1 Langmuir fit. As for the experimental part: Antibodies were captured via anti-mouse Fc IgGs (“Mouse antibody capture kit, Order No. BR100383, Cytiva) covalently amine coupled to a Series S CM5 sensor chip (Cytiva). The amine coupling was carried out according to the manufacturer's instructions using 1-ethyl-3-(3-dimethylaminopropyl) carbodiimide hydrochloride (EDC), N-hydroxysuccinimide (NHS) and ethanolamine HCl, pH 8.5 (“Amine Coupling Kit” BR-1000-50, Cytiva.). Human IL-11 (Invigate, e.g., lot #C121021-19), and murine IL-11 (Invigate, e.g., lot #C210819-09) were used as analytes. […] Based on that experiment an IL-11 concentration range was chosen to optimally determine kinetics and affinity of anti-IL-11 antibodies in multicycle kinetics mode. The sensor surface was regenerated with glycine pH 1.7 after each antigen injection. Obtained sensorgrams were double referenced (subtraction of reference flow cell signal and buffer injection) and were fitted to a 1:1 Langmuir binding model to derive kinetic data using the Biacore T200 Evaluation software or the Biacore Insight software.

B1: TPP-29603 (bispecific antibody, IgG1)
chain 1: QVQLVESGGGVVQPGRSLRLSCAASGFTFSHYDMHWVRQAPGKGLEWVAVISYHGSVKFYADSVKGRFTISRDNSKNTLYLQMNSLRAEDTAVYYCARTPGFHFDYWGQGTLVTVSSGGGGSGGGGSGGGGSQSVLTQPPSASGTPGQRVTISCSGSSSNIGSNYVSWYQQLPGTAPKLLIYYDDLRPSGVPDRFSGSKSGTSASLAISGLRSEDEADYYCSAWDDSLSGVVFGGGTKLTVLGGGGSGGGGSGGGGSGVECPPCPAPPVAGPSVFIFPPKPKDVLTITLTPKVTCVVVDISKDDPEVQFSWFVDDVEVHTAQTQPREEQFNSTFRSVSELPIMHQDWLNGKEFKCRVNSAAFPAPIEKTISKTKGRPKAPQVYTIPPCKEQMAKDKVSLWCMITDFFPEDITVEWQWNGQPAENYKNTQPIMDTDGSYFVYSKLNVQKSNWEAGNTFTCSVLHEGLHNHHTEKSLSHSPGK
chain 2: EVQLLESGGGLVQPGGSLRLSCAASGFTFSSYGMHWVRQAPGKGLEWVAVISYDGSYKYYADSVKGRFTISRDNSKNTLYLQMNSLRAEDTAVYYCAAGVPDYWGQGTLVTVSSGGGGSGGGGSGGGGSQSVLTQPPSASGTPGQRVTISCSGSSSNIGSDYDVHWYQQLPGTAPKLLIYSNEERPSGVPDRFSGSKSGTSASLAISGLRSEDEADYYCSAWDSSLSGPVFGGGTKLTVLGGGGSGGGGSGGGGSGVECPPCPAPPVAGPSVFIFPPKPKDVLTITLTPKVTCVVVDISKDDPEVQFSWFVDDVEVHTAQTQPREEQFNSTFRSVSELPIMHQDWLNGKEFKCRVNSAAFPAPIEKTISKTKGRPKAPQVCTIPPPKEQMAKDKVSLSCAITDFFPEDITVEWQWNGQPAENYKNTQPIMDTDGSYFVVSKLNVQKSNWEAGNTFTCSVLHEGLHNHHTEKSLSHSPGK
notes: scFv-kih-mIgG1; bispecific comprising CDRs of TPP-29528 and TPP-29519
B1: the binding result in the test with human IL2Ra is “no binding (tested: 1E-07 M antibody)”.

B2: TPP-18087 (antibody, mouse IgG1, V domains shown)
VH: EVQLLESGGGLVQPGGSLRLSCAASGFTFSHYDMNWLRQAPGKGLEWVGVISYDGSNKFYADFVKGRFTISRDNSKNTLYLQMNSLRAEDTAVYYCARTPGSHFDYWGQGTLVTVSS
VL: QSVLTQPPSASGTPGQRVTISCSGSSSNIGNNAVNWYQQLPGTAPKLLIYYDDLLPSGVPDRFSGSKSGTSASLAISGLRSEDEADYYCSAWDDSLNGVVFGGGTKLTVLG
notes: mIgG1, Lambda
As for B2, the “Efficacy (%)” value in test [1] stood at 5.5%. Also, in test [2], the “Efficacy (%)” value came to 60.4% and inhibition was half-maximal at 55 nM (IC50). This molecule also returned a Kd in test [3] of 42 nM.

B3: TPP-19528 (antibody, mouse IgG1, V domains shown)
VH: EVQLLESGGGLVQPGGSLRLSCAASGFTFSIYAMSWVRQAPGKGLEWVSSISDTGDRTYYADSVKGRFTISRDNSKNTLYLQMNSLRAEDTAVYYCARSNWGSLDYWGQGTLVTVSS
VL: QSVLTQPPSASGTPGQRVTISCSGSSSNIGSNYVYWYQQLPGTAPKLLIYYDDLLPSGVPDRFSGSKSGTSASLAISGLRSEDEADYYCAAWDDSLSGRVFGGGTKLTVLG
notes: mIgG1, Lambda
As to B3, in test [1], the “Efficacy (%)” value was 76.6% and half-maximal inhibition (IC50) required 14 nM. For the same molecule, in test [2], the “Efficacy (%)” value turned out to be 57% and the IC50 was 20 nM. The molecule further returned a Kd in test [3] of 9 nM.

B4: TPP-29697 (bispecific antibody, IgG1)
chain 1: QVQLVESGGGVVQPGRSLRLSCAASGFTFSHYDMHWVRQAPGKGLEWVAVISYHGSVKFYADSVKGRFTISRDNSKNTLYLQMNSLRAEDTAVYYCARTPGFHFDYWGQGTLVTVSSGGGGSGGGGSGGGGSQSVLTQPPSASGTPGQRVTISCSGSSSNIGSNYVSWYQQLPGTAPKLLIYYDDLRPSGVPDRFSGSKSGTSASLAISGLRSEDEADYYCSAWDDSLSGVVFGGGTKLTVLGGGGSGGGGSGGGGSGVECPPCPAPPVAGPSVFLFPPKPKDTLMISRTPEVTCVVVGVSHEDPEVKFNWYVDGVEVHNAKTKPREEQYNSTYRVVSVLTVLHQDWLNGKEYKCKVSNKQLPSPIEKTISKAKGQPREPQVYTLPPCRDELTKNQVSLWCLVKGFYPSDIAVEWESNGQPENNYKTTPPVLDSDGSFFLYSKLTVDKSRWQQGNVFSCSVMHEALHNHYTQKSLSLSPGK
chain 2: EVQLLESGGGLVQPGGSLRLSCAASGFTFSSYGMHWVRQAPGKGLEWVAVISYDGSYKYYADSVKGRFTISRDNSKNTLYLQMNSLRAEDTAVYYCAAGVPDYWGQGTLVTVSSGGGGSGGGGSGGGGSQSVLTQPPSASGTPGQRVTISCSGSSSNIGSDYDVHWYQQLPGTAPKLLIYSNEERPSGVPDRFSGSKSGTSASLAISGLRSEDEADYYCSAWDSSLSGPVFGGGTKLTVLGGGGSGGGGSGGGGSGVECPPCPAPPVAGPSVFLFPPKPKDTLMISRTPEVTCVVVGVSHEDPEVKFNWYVDGVEVHNAKTKPREEQYNSTYRVVSVLTVLHQDWLNGKEYKCKVSNKQLPSPIEKTISKAKGQPREPQVCTLPPSRDELTKNQVSLSCAVKGFYPSDIAVEWESNGQPENNYKTTPPVLDSDGSFFLVSKLTVDKSRWQQGNVFSCSVMHEALHNHYTQKSLSLSPGK
notes: scFv-kih-hIgG1 with Fc-silencing mutations; bispecific comprising CDRs of TPP-29528 and TPP-29519
For the molecule B4, the binding result with human IL2Ra is reported as “no binding (tested: 1E-07 M antibody)”.
